Source: article PMC13582642
Where “and” joins values, the source holds several entries; their conditions need not be identical. Equal values may be shown once.

Tests used:
[1] = SEC; Agilent Bio SEC-3 column, 25 °C, 50 mM sodium phosphate, 150 mM KCl, 10% isopropanol, pH 6.8; samples at 1 mg/ml; fluorescence detection; percentages from peak areas
[2] = target: UV-stressed (aggregated) infliximab; assay: FFF-MALS; asymmetric flow field flow fractionation (Eclipse AF4) with UV, MALS and dRI detectors; mobile phase 0.01 M monopotassium phosphate, 0.0027 M potassium chloride, 0.137 M sodium chloride
[3] = target: Fc gamma receptor IIa (human (endogenous in moDCs)) (UniProt P12318)
[4] = target: UV-stressed (aggregated) infliximab; assay: SEC; Agilent Bio SEC-3 column, 25 °C, 50 mM sodium phosphate, 150 mM KCl, 10% isopropanol, pH 6.8; samples at 1 mg/ml; fluorescence detection; percentages from peak areas
[5] = target: macrophage mannose receptor (CD206) (human (endogenous in moDCs)) (UniProt P22897)
Sequence of UniProt P22897 (P22897 19-1456): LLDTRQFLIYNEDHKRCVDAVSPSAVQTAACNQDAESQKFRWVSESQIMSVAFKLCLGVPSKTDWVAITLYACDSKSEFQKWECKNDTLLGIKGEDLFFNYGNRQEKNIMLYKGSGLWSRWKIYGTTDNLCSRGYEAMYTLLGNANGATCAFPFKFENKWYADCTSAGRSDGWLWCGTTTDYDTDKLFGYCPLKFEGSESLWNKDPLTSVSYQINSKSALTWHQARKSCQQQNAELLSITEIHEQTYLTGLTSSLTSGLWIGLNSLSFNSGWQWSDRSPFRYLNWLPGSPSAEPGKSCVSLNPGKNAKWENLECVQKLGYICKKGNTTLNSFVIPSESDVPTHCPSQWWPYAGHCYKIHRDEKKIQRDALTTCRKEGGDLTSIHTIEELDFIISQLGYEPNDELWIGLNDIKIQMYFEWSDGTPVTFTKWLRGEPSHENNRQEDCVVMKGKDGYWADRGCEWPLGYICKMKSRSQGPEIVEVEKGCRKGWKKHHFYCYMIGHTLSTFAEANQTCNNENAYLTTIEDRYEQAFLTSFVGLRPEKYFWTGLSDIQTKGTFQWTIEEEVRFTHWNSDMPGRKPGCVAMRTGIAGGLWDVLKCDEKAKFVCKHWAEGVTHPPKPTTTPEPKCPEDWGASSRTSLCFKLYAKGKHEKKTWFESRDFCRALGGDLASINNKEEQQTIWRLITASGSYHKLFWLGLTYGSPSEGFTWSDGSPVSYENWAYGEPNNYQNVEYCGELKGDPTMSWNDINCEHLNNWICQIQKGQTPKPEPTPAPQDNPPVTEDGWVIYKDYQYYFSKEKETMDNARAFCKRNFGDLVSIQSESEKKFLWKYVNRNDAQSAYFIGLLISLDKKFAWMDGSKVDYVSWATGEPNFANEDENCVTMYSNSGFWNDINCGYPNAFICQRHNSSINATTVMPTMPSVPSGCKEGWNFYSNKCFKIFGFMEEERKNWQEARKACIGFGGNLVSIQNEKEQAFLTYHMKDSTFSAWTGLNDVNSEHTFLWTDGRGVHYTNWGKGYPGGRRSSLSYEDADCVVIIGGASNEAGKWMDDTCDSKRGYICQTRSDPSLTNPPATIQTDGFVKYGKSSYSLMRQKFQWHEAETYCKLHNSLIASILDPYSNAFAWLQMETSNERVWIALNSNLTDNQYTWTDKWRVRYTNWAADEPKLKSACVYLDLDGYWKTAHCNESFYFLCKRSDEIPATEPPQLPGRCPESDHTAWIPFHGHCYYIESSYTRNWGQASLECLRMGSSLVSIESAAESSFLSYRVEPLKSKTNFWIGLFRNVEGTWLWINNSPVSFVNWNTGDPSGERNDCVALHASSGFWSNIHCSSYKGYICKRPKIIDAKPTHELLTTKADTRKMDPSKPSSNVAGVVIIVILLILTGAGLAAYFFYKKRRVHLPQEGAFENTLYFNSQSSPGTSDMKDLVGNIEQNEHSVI

Sequence of UniProt P12318 (P12318 34-317): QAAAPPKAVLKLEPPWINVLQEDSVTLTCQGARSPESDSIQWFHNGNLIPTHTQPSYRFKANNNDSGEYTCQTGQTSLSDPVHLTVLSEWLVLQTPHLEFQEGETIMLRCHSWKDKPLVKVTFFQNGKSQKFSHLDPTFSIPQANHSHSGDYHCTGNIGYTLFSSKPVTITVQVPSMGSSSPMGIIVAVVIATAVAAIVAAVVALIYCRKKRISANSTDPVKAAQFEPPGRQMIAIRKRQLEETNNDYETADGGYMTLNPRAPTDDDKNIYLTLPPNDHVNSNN

percent of dimers (FFF-MALS) [2] [%] | percent of trimers and oligomers (FFF-MALS) [2] [%] | reduction of the uptake of AF-488 IFX UV by moDCs after pre-treatment with anti-FcγRIIa Ab (1 µg/ml) [3] [%] | stoichiometry N [4] | inhibition of the internalization rate of AF-488 IFX UV by moDCs (flow cytometry, 37 °C minus 4 °C) after pre-treatment with anti-CD206 IgG (10 µg/ml) [5] [%] | inhibition of the percentage of moDCs internalizing AF-488 IFX UV after pre-treatment with anti-CD206 IgG (10 µg/ml) [5] [%] | Substance | percent of dimers (ratio of SEC peak areas) [1] | percent of trimers (ratio of SEC peak areas) [1]
 |  |  |  |  |  | UV-stressed (aggregated) infliximab | 19.27% ± 0.24% dimers | 26.19% ± 3.95 trimers
22.4 | 24.7 | 19 | 2 and 3 | 39 | 32 | UV-stressed (aggregated) infliximab (antibody) |  | 
